Laboratory results taken from patent publication US20250011422A1.

Legend:
[1] = target: human Siglec-6 on the cell surface (U937, MEC1-002, MEC1-hS6, primary CLL cells) (human) (UniProt O43699); assay: quantitative flow cytometry, primary CLL cells (live, CD20+ CD5+), CLL patient 2691
[2] = target: human Siglec-6 on the cell surface (U937, MEC1-002, MEC1-hS6, primary CLL cells) (human) (UniProt O43699); assay: quantitative flow cytometry, primary CLL cells (live, CD20+ CD5+), CLL patient 8242
[3] = target: human Siglec-6 on the cell surface (U937, MEC1-002, MEC1-hS6, primary CLL cells) (human) (UniProt O43699); assay: quantitative flow cytometry, primary CLL cells (live, CD20+ CD5+), CLL patient 4973
[4] = target: human Siglec-6 on the cell surface (U937, MEC1-002, MEC1-hS6, primary CLL cells) (human) (UniProt O43699); assay: quantitative flow cytometry, primary CLL cells (live, CD20+ CD5+), CLL patient 3071
[5] = target: human Siglec-6 on the cell surface (U937, MEC1-002, MEC1-hS6, primary CLL cells) (human) (UniProt O43699); assay: quantitative flow cytometry, primary CLL cells (live, CD20+ CD5+), CLL patient 11944
[6] = target: human Siglec-6 on the cell surface (U937, MEC1-002, MEC1-hS6, primary CLL cells) (human) (UniProt O43699); assay: quantitative flow cytometry with bead calibration standard, cell line MEC1-002
[7] = target: human Siglec-6 on the cell surface (U937, MEC1-002, MEC1-hS6, primary CLL cells) (human) (UniProt O43699); assay: quantitative flow cytometry, primary CLL cells (live, CD20+ CD5+), CLL patient 4705

human Siglec-6 on the cell surface (U937, MEC1-002, MEC1-hS6, primary CLL cells) (human), sequence (O43699 27-453): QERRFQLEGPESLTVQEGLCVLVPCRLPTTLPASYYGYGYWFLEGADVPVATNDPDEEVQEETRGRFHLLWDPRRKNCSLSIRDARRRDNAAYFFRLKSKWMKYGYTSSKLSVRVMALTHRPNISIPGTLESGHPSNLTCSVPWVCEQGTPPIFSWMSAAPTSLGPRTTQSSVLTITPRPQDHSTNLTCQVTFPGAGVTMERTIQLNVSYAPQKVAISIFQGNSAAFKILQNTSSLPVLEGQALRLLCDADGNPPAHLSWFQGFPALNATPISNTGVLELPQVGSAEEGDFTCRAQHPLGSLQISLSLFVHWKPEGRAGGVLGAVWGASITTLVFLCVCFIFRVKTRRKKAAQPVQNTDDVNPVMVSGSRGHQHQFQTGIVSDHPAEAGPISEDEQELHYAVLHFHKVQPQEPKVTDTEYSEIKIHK

Siglec-6 (ABC-isotype) [1]: 6040 ABC
Siglec-6 (ABC-isotype) [2]: 843 ABC
Siglec-6 (ABC-isotype) [3]: 3670 ABC
Siglec-6 (ABC-isotype) [4]: 1540 ABC
Siglec-6 (ABC-isotype) [5]: 3580 ABC
Siglec-6 (ABC-isotype) [6]: 1450 ABC
Siglec-6 (ABC-isotype) [7]: 2430 ABC
Substance: commercial mouse anti-human Siglec-6 mAb clone 767329 (R&D Systems) (antibody)
